Measurements from the domain aggregation screens of Martell et al. (2025).

Assay: soluble fraction after stress (log2 fold change); higher = more stays soluble; pooled small domains, quantitative proteomics
Conditions: stress: 50 degC
Summary of the method: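 The stress applied to every library was 50°C. These custom libraries of small protein domains were pooled and measured at high throughput with quantitative proteomics as the read-out. Aggregation propensity is expressed as the base-two logarithm of the fold change in how much of each protein remains soluble. The higher the value, the more of that protein stays in solution.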

Row | Sequence | soluble fraction (log2)
1 | HMRGAARRDRAVGERAVSKDTILDATRALLRKGSALEIRAIDIAEESGLSRQTVFQYYPVIRLIFFELSD | 0.138
2 | HMGLNNVSDILRLDFNSFKKKFDKLPSGYKNSVVEQAALMIKSGELDSIKIKDYIEKSMGIELDI | -0.27
3 | HMGPKALLKIPGLQEVDAELLFKEGYKSISAVASADPEMLKAIPGVDEQKVTEWVTGAEQILSQQVNKGA | 0.342
4 | HMLERKPVLVASRDLPALAVIGKDDLSVELLRTAPVGSYDRPEALLGKRVWVAVPAGSILSAATLEP | -0.103
5 | HMAASEAESIRILLSEGVDRVHLRKPQSAEADMRRLIEALPPELYPRLTLQDHLHLAGEYGT | 0.0186
6 | HMNTGLSEREHEIAQLVLQGRTYAEIGAELFISPRTAEHHIGQIRRRLAATSRSDLLAKLRVAMNTTEGAG | -1.27
7 | HMYFEDEELDRFVGTPAGAYTEEDVEEFRDVLLSLDIEEVPSWVRSLQLRGIDFPETLRPELYLL | -3.14
8 | HMNIEEAESILKEIKTVLTDKEYEVYTLRAKGFTYQEIASLLNTTTKSVDGALSRIKTKINNIK | 0.0839
9 | HMPMTRILFLPDDRTILQFDSAEPAEDLVSAVNAGRWLPPEPYRSGFGLGLPENRLRASRQGALVVVMLS | -0.967
10 | HMHYKLIIFENHTKSTSLDITPEQARQILGVTDYTPEQYEILAEITNRPASYFMDDLVDYYVD | -2.39
11 | HMTGIVVVDVVGQVGRPGLVSLPAGSRVADAITAAGGATPEADVSLLNQARLVIDGEQIRVPRPGEVIAA | -0.0367
12 | HMNVDLLEARIPIQSHGMRLDQVVAELFPDYSRNRLAAWIKEGRLTVDGKTMKPRDRALASAHVVLEVV | -0.18
13 | HMKSLHSEVTDRIRQLIVESHLQPGQRVPELEISRDLGVSRTPIREALKVLAAEGLVELLPLRGAMVK | 0.0612
14 | HMQPLGHDLTERELDVLALMVTGMNNSEIADKLVVSRSTIKYHVSNILSKLQATSRTEAVAYALQQNLVH | -0.469
15 | HMPEPMKLSDLPPELWQRVSDLFDEVIDLPETDRIPYIRNLWGSEPLVAKELMALLVAAANVD | -0.274
16 | HMGNHMSFKMWGEQLQEAFRALETYDTQKAKTILNELVRFPIDSDITKALKGIISNIDDMMA | -0.535
17 | HMTGSALDATIEKLLDLGSKAGSVTEDEIQIVLKNVDVTDAQLSSIYQFLRDRGVEIVSATEDDD | 0.0977
18 | HMTDVIADMLTRIRNAASSKHQTVDIPSSNLKKEIAKILLEEGYIRDFIEIDDKKQGIIRITL | -0.389
19 | HMSVTSEIGAKIKYFRKSKHFSLQEMADLLYKSKSTLSKYENGQISIDIETLYAIAKVLGVHVEQLLYSEP | -4.49
20 | HMSDKPIFIDTAGIAALSAIGFSKYQATIIFNYIKKGGAIYTVKDLAKIYSIDQKTIDLTQSKIIFS | -0.0111
21 | HMLNQIGVSQKEFDQIHTAIKIALKTSSLTPTGITEKLPKFPPEKTADILRWMADNKEVLLNSEEKYELKT | -0.0315
22 | HMGMLATFVTSAKVPDDVVYAITKEVFENLDEFKKLHPALEGLTRETMLEGLTAPIHPGALKYYKEAGLM | -0.522
23 | HMGGAYATVKLSSSSSQLNVRASASTASRVVARLSHGFRVEVLGVSGDWVKIRALGVEGYVARAYLALEGE | -0.374
24 | HMYTVQQLARLAGITPRTLRHYDAIGLLKPTRVGENGYRYYGSEALLRLQSILLYRELDMPLEDIRRVLDS | -3.15
25 | HMLSLKAQVYEIIRQKILQQEYALGEKINIDTVADELKISNSPIREALMMLSQDGLIEMVPNNGARVI | -0.772

Row | Sequence | soluble fraction (log2)
26 | HMDGFVFVMPIKETRMFSVNDERPLVGIVKYSNGEFEKEQLIGFRPNSEYEFIIEGQRLYRVPVNSITIK | -0.886
27 | HMDTLESYVKRLEKLEGIADSFKGVSKAFALQAGREIRIMVESEKITDEEAVWLSKDIARRIENELEYPG | -0.378
28 | HMDIEITIPPEAKELDVSKILISGNIITDEQEFLDYLKQNNVAAFKDGNYKLNKNMTTEEIVNQIK | 0.498
29 | HMSSPVGIAQATTYVYVRAGHSMQAAKVGVLSPGEKVGVTGRSAQGFSEVVYNGVHRWVGSRYLSPT | -1.4
30 | HMDYPFQYFNYSHLRILGVPAQLIKAVRKAPTLDAIEQLSGLSEKTKLWLLELATEPKLEDVLFDPGR | -1.44
31 | HMKRVTRQRTEILRVIDESERPLGPQEILQAGREAIPSLSIATIYRTLRDLLAEELIKTVALPGDSPRYES | -1.31
32 | HMQEPVHFTRRERQVLSLILSGQATAEIAKTLGIANATVTTYKKSLYSKSGTNSLSRLLIWAMVRR | -0.27
33 | HMQLYSLEVLSKKKVDLIENNKNLINLYFNKENGEYSYRLIFKNRKELYQVKDTLDNSSDVVSIKLDL | -0.863
34 | HMSSQWWYSAGGERKGPVDFATLRGLYVQGAIDGRTLAWREDMQGWEAVNDIPDLEPLRRAVPPEL | -0.0348
35 | HMSFNTNENKNLLWELMNKHNLFKDIDNQHYQEVQKLFEEEIVFISNNNKSLDLVEQNKKFLSSIITKLNK | -1.41
36 | HMELSTQERIQILLEILNQREIISFSQTLRKKEGKKGVVVTFLASLELAKDGYVTLVQNKSDQIYLRSN | -0.7
37 | HMQGPDPYAVLGIDRHADERAIKRAYRKLISEHHPDRLGDLPEDMRKRAESRASEINAAYDRIKEARGF | 0.0487
38 | HMFTDEELEHIRSALIQAGIRLSKELGLQKMSVEKLTAAVGIAKGSFYMFFGSKEDFILEVAEYTGAQ | -0.582
39 | HMKGPAFAKIDLTQLPAGLTSFLNTNAAGFKLDYAVAITKDSVIIEYHVGVTIGTAKKEFHLDPNFQLLP | -0.36
40 | HMQKYSTIIGVIELRQSGIGYRTTKKRYNIGNSTVTLIMNRFHELGLSLEELKAMPPKKVEEAFYPPE | -2.43
41 | HMAKRPRFEDVIKEINTEIQKRKGKWNLTILSWMDFDDVAQVIRIHIYRKWHLYDPSKPLGPWLNR | 0.0232
42 | HMLPDLQKAIDTFLYEVDSRINTSFEELIDKLNSKEEAVAFFLALLEAVRWGFIKAEQESNSINIKK | -0.565
43 | HMIKKLDIEPIIKSVVDDFNNIYKLKRGITISYLNDGKNKYFINGIENRIEQIIANLLDNSISFSEDNKDV | 0.0041
44 | HMLLLHINQMGVTEFSQLELNHVRSWLANLQIKGAARSSITRRVVSVRAFTYWGAKNGWLASDIGRDLVAP | -0.277
45 | HMAPPPLAGAREALREQIRRGSLSARRGFDAYADALGLPAGTRGAHPIFAALQRLDYPQALRLLDQEPT | 0.0894
46 | HMQSNDAGELEAVVKGIIDANPKVVADYLAGNQKVVSFFVGQAMKATKGKANPKMVSEILGKLL | 0.00348
47 | HMEAGTVTVTHAAVYIRSGPGVSYPIAGKAAKNDTYTVLQKDGDWFQIRLPQGNTGWIAGWLVETGT | -0.635
48 | HMKKVKVPNVVGMSLKEARDALSAVNIAVNQVAGSVEDKSVVTEQSLKAGDEVDEGSSLNLTTEYK | -0.156
49 | HMIAITVGSKVRVKAGATFSDGTKPFTEVYNTVYDVQLLSRNGKEARIGIGEQWTGWMYISDLYPADQ | -0.359
50 | HMATPAFEMYKVRRGDTPAGLAKEWGFPDMASFYRINPDARSDWKRGLQLVKPMNEMAVLQATA | -0.255

Row | Sequence | soluble fraction (log2)
51 | HMVELRDGSLPLARGSVGDLVAEVQRKLGVAADGIFGPQTERAVRAFQARAGLASDGIVGPLTWSALFGA | -0.282
52 | HMYEGLPVTLIIDGRVIEANLAKANRDMAWLERELANSGVRSHHDVFFATLDSRGQLYYQVKN | -0.143
53 | HMESRDRVRQASAAGYRFMSTMAGHEPGFEEASRALFAGDQTAFEARITAWPVDVQTHLKKILAEAFTT | -0.734
54 | HMINIQYSYNDGKETLHNLSPEVIAEKIMDDPNGYHIVWKQGMVGWVNANDIDDIAKLLRQKK | -0.0619
55 | HMSTTALLEKMVRYIRTLPVISQVVLSLHYYRGMELREIASELDITESRASQLHTTAVLGIRDLLSSY | -3.33
56 | HMKGIVFTEFLDLVEERFGLEMVDAIISQSKLESKGVYTSIGTYSFSELLQLLQNLKIQTGISIDNLLLI | -0.88
57 | HMLVGGPDTPSKVTVSFDLGSRQAVDELTERAGAAGGRIGDIDDYPFMYQRQFDDPDGYHYSPFWMKP | -0.149
58 | HMPMTDYQLIRSNRRTIALQITRDARVVVRAPLYASEADIRRFVESHRAWIESHLDRQRARTD | -1.76
59 | HMNPEDDLLKAIIMKYFSNAQVQVDKNVIEYLLKRVDRDYQNLYNILEKINILSLQRKSKITTHLIRDIM | -0.432
60 | HMSLAISGRNQLHGIIEEVRSDGLLSQIYLRVGDQVLTAVITRDAVAELKLKRGDTAVAIMKSTEVMIARE | 0.147
61 | HMSEPHPPFQVVAQFPYKSEYEDDLNFEKDQIITVTSIEDDEWYYGDFKNKGGELVEGIFPKSFVTVK | -0.403
62 | HMRPPLRAAIIDHLARDWHTVAELARLLPASGAHVSRLVVELRAVGAVDERISHPDWPGNRPTEYRLRRA | -3.58
63 | HMPTNVYSIIGKEGIVLESIDNLNSTGKVKVNGELWSAISDSNIEKGETIKVLSVNGVKLKVEKVN | 0.0885
64 | HMEYEETMSQIKHNLNLLPRQQRVIIEMAKFDELTPAEIAKQLGISVQTVRNQLSTGLKKLRQLL | -0.0252
65 | HMNHHTEQQLKALSNKVKDHRMRMRLLAVAHFKAGKNKADVARTLNVSRRMVNEWVANYFKGGVSALES | -3.6
66 | HMTTVRLNATVPPELALQRLDRVARELFPEYSRNRLQQWIRSGELLVNGSPSGVRDKVPLGAELAVAANLE | -0.416
67 | HMEKKEWVIYITGAVKKPGVYRIPEGARVYQALEAAGGFTPEADRDAVNLAAMLQDGAHIKFPAVGEEV | 0.117
68 | HMRKEPSYASDIITRLKEADLIVVEGTLYPLLTRLKKDGLLSYEWRESTQGPPRKYYALTLDGET | -0.455
69 | HMNSLKNKNNLIALVGASNDKNKYGNKILLDLVSKGHNVVPINPKEDTVAGLKSYNNVSELSEKPSI | -0.211
70 | HMNLIFFSENLSTFRKEKGWTQSELAEKLGVKANTISNYEKGISTPDYKIIAKLRELFEMPTDVLLYSNLS | -1.39
71 | HMNNSDIDITVGKNSISINNPNRTNIIIYSSNGMLIDSSKNASYKRNLPSGIYIVKSGSSTHKVIV | -0.148
72 | HMTMQQGTISRLNHSRGFGFLTTPDGEDLFFHRTNVHETPFARLQVGDRVTYDVQVTPRGTRADKVQLNM | -0.0328
73 | HMADYYSILGLTKNATDIEIKSAFRKLAKIYHPDKNPDPNARVLFEHILKAYDTLINPHSRRRYDSL | -0.349
74 | HMRMLSEGAQRMLRGLAVLEEASADRLLELHQGDYPGFVRSLFALESAGLFQRNGSGTWIRR | -0.819
75 | HMTQFSASSERAGAGGAYRTTLRAMEQNGDLLQISILLPDAVTAKHAATVWPERAQAIYTAILSELLK | -0.446
